B1: modified truncated sema3A (T-sema3A) (ligand)
chain: NYQNGKNNVPRLKLSYKEMLESNNVITFNGLANSSSYHTFLLDEERSRLYVGAKDHIFSFDLVNIKDFQKIVWPVSYTRRDECKWAGKDILKECANFIKVLKAYNQTHLYACGTGAFHPICTYIEIGHHPEDNIFKLENSHFENGRGKSPYDPKLLTASLLIDGELYSGTAADFMGRDFAIFRTLGHHHPIRTEQHDSRWLNDPKFISAHLISESDNPEDDKVYFFFRENAIDGEHCGKATHARIGQICKNDFGGHRSLVNKWTTFLKARLICSVPGPNGIDTHFDELQDVFLMNFKDPKNPVVYGVFTTSSNIFKGSAVCMYSMSDVRRVFLGPYAHRDGPNYQWVPYQGRVPYPRPGTCPSKTFGGFDSTKDLPDDVITFARSHPAMYNPVFPMNNRPIVIKTDVNYQFTQIVVDRVDAEDGQYDVMFIGTDVGTVLKVVSIPKETWYDLEEVLLEEMTVFREPTAISAMELSTKQQQLYIGSTAGVAQLPLHR
B2: Sema3A fused in frame with alkaline phosphatase (sema3A-AP) (ligand)
chain: NYQNGKNNVPRLKLSYKEMLESNNVITFNGLANSSSYHTFLLDEERSRLYVGAKDHIFSFDLVNIKDFQKIVWPVSYTRRDECKWAGKDILKECANFIKVLKAYNQTHLYACGTGAFHPICTYIEIGHHPEDNIFKLENSHFENGRGKSPYDPKLLTASLLIDGELYSGTAADFMGRDFAIFRTLGHHHPIRTEQHDSRWLNDPKFISAHLISESDNPEDDKVYFFFRENAIDGEHSGKATHARIGQICKNDFGGHRSLVNKWTTFLKARLICSVPGPNGIDTHFDELQDVFLMNFKDPKNPVVYGVFTTSSNIFKGSAVCMYSMSDVRRVFLGPYAHRDGPNYQWVPYQGRVPYPRPGTCPSKTFGGFDSTKDLPDDVITFARSHPAMYNPVFPMNNRPIVIKTDVNYQFTQIVVDRVDAEDGQYDVMFIGTDVGTVLKVVSIPKETWYDLEEVLLEEMTVFREPTAISAMELSTKQQQLYIGSTAGVAQLPLHRCDIYGKACAECCLARDPYCAWDGSACSRYFPTAKRRTRRQDIRNGDPLTHCSDLHHDNHHGHSPEERIIYGVENSSTFLECSPKSQRALVYWQFQRRNEERKEEIRVDDHIIRTDQGLLLRSLQQKDSGNYLCHAVEHGFIQTLLKVTLEVIDTEHLEELLHKDDDGDGSKTKEMSNSMTPSQKVWYRDFMQLINHPNLNTMDEFCEQVWKRDRKQRRQRPGHTPGNSNKWKHLQENKKGRNRRTHEFERAPRSV
B3: CD72 fused with a V5 epitope tag, expressed in U87MG-ΔNRP-1-CD72+ cells (receptor)
chain: MAEAITYADLRFVKAPLKKSISSRLGQDPGADDDGEITYENVQVPAVLGVPSSLASSVLGDKAAVKSEQPTASWRAVTSPAVGRILPCRTTCLRYLLLGLLLTCLLLGVTAICLGVRYLQVSQQLQQTNRVLEVTNSSLRQQLRLKITQLGQSAEDLQGSRRELAQSQEALQVEQRAHQAAEGQLQACQADRQKTKETLQSEEQQRRALEQKLSNMENRLKPFFTCGSADTCCPSGWIMHQKSCFYISLTSKNWQESQKQCETLSSKLATFSEIYPQSHSYYFLNSLLPNGGSGNSYWTGLSSNKDWKLTDDTQRTRTYAQSSKCNKVHKTWSWWTLESESCRSSLPYICEMTAFRFPD

Legend:
[1] = biological target: the molecule itself; assay: SDS-PAGE with and without reducing agent, western blot
[2] = biological target: neuropilin-1 (NRP-1) on parental U87MG cells (human (endogenous in U87MG), UniProt O14786 22-923); assay: alkaline phosphatase fusion binding to cells
[3] = biological target: B2; assay: alkaline phosphatase fusion binding to cells

Chain of neuropilin-1 (NRP-1) on parental U87MG cells (O14786 22-923): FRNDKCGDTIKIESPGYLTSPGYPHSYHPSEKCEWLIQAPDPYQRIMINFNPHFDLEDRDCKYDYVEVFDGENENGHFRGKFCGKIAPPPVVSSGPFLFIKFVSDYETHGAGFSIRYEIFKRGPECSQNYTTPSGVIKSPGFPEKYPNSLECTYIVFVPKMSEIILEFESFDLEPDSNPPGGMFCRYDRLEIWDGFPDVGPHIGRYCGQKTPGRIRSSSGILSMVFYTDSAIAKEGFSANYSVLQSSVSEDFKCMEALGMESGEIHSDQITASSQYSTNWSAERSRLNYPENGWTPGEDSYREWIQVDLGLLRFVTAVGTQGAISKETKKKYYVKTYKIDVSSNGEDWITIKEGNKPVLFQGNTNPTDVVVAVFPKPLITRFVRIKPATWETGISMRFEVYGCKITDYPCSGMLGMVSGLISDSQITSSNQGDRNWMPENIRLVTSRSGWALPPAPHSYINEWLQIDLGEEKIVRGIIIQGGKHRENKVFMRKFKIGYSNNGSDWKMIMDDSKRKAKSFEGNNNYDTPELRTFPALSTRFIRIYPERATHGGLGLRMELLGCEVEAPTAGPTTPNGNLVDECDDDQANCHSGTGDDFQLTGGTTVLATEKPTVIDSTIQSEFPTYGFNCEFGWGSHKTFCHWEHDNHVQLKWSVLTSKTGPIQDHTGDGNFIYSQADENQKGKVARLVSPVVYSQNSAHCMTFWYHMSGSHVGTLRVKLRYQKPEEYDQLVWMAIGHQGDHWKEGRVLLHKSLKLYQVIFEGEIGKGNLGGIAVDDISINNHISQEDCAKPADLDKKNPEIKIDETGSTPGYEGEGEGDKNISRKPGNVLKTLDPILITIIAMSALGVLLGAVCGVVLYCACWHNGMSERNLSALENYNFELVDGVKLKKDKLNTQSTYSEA

With B1 the “stoichiometry N” value [1] was 2.

B2 gave a Kd [2] of ~4.73 nM.

Binder B3 has a Kd [3] of ~7.62 nM.

From publication doi:10.1101/2021.08.24.457482 (bioRxiv, 2021)
